In PMC5576363:

Key:
LbuC2c2-dHEPN1/dHEPN2 [1] = target: T1, LbuC2c2-dHEPN1/dHEPN2 (Leptotrichia buccalis, UniProt C7NBY4 1-1159, R472A;H477A;R1048A;H1053A); experiment: filter binding
T1 sequence: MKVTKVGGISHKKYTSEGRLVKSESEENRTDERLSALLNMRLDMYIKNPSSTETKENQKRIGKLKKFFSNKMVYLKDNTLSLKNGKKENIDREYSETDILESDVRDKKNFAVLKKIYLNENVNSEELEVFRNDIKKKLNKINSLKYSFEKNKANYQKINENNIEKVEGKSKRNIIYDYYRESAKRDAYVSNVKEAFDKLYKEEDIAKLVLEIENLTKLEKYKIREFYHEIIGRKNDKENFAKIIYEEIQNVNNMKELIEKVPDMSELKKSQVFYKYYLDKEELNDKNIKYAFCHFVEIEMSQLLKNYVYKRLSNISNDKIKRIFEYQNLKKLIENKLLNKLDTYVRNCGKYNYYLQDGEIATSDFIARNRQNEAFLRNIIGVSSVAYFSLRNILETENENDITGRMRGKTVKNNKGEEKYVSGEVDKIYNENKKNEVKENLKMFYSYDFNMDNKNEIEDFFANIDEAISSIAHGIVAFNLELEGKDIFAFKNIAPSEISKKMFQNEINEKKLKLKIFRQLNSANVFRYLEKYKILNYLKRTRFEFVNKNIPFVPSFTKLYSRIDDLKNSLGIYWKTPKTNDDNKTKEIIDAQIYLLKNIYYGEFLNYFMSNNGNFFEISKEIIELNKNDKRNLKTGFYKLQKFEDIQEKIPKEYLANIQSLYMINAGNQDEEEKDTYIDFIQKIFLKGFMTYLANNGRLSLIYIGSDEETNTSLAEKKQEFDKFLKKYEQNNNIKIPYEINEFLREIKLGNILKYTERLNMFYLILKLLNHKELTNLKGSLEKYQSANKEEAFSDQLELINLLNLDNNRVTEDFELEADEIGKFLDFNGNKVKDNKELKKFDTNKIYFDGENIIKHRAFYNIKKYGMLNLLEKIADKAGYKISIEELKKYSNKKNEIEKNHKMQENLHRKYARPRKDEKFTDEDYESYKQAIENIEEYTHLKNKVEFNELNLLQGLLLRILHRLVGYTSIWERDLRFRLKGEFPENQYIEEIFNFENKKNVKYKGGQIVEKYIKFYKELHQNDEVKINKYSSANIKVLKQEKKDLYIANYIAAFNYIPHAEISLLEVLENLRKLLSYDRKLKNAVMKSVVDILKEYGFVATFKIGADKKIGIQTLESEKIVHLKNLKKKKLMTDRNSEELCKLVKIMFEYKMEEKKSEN

LbuC2c2-dHEPN1 = target: T2, LbuC2c2-dHEPN1 (Leptotrichia buccalis, UniProt C7NBY4 1-1159, R472A;H477A); experiment: filter binding
T2 sequence: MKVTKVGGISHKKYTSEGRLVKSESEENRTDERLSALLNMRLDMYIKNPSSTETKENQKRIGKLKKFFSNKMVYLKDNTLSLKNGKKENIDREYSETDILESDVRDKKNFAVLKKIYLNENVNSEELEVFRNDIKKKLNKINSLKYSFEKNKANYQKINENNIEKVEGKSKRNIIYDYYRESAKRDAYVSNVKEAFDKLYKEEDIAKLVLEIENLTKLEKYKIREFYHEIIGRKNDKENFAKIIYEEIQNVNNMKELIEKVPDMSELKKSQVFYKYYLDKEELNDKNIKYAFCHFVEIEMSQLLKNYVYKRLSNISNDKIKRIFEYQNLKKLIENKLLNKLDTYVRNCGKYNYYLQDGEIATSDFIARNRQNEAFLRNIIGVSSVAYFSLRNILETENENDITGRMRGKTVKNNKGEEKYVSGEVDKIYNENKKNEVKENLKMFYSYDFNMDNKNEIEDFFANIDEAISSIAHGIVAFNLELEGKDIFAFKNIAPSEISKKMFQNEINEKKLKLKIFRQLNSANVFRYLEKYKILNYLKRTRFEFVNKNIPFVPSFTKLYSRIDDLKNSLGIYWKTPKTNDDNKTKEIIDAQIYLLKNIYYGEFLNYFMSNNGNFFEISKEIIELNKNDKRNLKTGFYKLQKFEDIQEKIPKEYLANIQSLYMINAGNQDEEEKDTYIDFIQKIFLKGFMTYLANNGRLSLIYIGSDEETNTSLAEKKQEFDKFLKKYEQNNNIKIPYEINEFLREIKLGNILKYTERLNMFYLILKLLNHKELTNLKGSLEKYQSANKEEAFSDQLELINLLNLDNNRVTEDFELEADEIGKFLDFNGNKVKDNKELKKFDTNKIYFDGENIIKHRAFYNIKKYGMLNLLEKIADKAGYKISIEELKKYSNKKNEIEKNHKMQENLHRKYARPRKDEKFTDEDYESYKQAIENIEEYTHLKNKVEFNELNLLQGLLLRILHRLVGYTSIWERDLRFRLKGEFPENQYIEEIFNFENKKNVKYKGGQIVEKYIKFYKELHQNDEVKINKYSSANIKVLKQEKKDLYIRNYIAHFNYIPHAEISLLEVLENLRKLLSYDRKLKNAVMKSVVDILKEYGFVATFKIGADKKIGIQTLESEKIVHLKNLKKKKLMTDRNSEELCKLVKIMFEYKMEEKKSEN

LbuC2c2-dHEPN2 = target: T3, LbuC2c2-dHEPN2 (Leptotrichia buccalis, UniProt C7NBY4 1-1159, R1048A;H1053A); experiment: filter binding
T3 sequence: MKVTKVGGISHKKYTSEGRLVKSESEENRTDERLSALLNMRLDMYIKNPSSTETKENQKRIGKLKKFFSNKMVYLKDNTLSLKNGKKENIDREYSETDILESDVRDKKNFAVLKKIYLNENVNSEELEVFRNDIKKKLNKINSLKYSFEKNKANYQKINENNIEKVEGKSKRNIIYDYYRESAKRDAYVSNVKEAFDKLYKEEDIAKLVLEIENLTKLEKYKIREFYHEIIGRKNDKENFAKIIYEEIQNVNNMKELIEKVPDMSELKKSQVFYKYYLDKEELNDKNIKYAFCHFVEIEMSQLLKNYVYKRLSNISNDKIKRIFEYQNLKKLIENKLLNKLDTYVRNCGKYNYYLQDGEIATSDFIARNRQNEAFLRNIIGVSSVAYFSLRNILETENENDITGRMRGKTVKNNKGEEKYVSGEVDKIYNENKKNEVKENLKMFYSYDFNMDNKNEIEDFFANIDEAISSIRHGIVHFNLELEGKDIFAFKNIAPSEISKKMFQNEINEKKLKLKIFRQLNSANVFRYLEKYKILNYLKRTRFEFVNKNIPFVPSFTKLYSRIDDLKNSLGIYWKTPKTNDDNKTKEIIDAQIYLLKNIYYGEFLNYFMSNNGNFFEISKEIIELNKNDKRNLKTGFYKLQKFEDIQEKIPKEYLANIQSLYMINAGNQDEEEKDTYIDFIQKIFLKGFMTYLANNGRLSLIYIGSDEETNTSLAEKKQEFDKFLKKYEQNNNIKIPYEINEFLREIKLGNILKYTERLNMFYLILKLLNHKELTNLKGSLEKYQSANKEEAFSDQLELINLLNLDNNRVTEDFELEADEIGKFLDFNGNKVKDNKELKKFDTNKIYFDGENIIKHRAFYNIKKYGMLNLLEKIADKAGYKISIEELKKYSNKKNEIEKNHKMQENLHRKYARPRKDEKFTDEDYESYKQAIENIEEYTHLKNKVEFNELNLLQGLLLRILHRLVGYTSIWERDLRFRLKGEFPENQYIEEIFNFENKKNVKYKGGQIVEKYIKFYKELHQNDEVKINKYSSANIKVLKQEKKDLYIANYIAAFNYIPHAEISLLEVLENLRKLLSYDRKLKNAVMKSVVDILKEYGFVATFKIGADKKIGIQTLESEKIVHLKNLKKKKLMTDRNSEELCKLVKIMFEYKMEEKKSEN

LbuC2c2-R1079A = target: T4, LbuC2c2-R1079A (Leptotrichia buccalis, UniProt C7NBY4 1-1159, R1079A); experiment: filter binding
T4 sequence: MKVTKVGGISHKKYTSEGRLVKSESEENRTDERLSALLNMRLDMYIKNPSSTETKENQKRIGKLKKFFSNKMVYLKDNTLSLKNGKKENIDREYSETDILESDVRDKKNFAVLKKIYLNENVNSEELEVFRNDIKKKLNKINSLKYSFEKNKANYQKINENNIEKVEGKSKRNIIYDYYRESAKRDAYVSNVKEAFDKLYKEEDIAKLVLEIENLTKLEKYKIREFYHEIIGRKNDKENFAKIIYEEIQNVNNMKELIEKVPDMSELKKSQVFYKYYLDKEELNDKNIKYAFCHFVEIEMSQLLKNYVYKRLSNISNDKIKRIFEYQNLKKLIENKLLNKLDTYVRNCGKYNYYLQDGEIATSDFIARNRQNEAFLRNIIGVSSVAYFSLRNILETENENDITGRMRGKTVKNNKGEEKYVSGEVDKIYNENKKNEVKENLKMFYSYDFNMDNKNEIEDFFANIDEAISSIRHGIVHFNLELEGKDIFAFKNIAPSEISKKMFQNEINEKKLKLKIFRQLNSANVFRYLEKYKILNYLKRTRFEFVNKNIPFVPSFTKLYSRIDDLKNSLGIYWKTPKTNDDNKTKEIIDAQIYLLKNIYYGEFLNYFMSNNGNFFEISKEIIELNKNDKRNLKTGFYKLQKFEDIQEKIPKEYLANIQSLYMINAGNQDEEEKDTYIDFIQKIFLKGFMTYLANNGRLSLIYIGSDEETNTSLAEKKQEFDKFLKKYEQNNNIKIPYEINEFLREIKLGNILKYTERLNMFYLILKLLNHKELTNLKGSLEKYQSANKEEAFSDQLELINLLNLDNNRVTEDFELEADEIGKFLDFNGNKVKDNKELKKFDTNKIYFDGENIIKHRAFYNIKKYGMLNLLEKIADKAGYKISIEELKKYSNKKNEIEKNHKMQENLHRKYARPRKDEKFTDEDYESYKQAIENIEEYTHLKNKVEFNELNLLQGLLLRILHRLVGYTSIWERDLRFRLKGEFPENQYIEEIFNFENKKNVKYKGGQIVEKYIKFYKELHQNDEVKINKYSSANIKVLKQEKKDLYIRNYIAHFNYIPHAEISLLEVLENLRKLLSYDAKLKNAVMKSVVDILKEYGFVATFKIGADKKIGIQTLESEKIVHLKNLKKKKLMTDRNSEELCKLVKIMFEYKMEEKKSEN

LbuC2c2-dHEPN1/dHEPN2 [2] = target: T1, LbuC2c2-dHEPN1/dHEPN2; experiment: EMSA

B1: mature crRNA-A_GG (crLbu_A_GG_AES432) (structured_RNA)
RNA: GGCCACCCCAAAAAUGAAGGGGACUAAAACAGGGGCAGAGAUGAUGACCCU
- Kd (LbuC2c2-dHEPN1/dHEPN2 [1]): 43.3 ± 11.5 nM
- Kd (LbuC2c2-dHEPN1): 15.2 ± 3.2 nM
- Kd (LbuC2c2-dHEPN2): 11.5 ± 2.5 nM

B2: mature crRNA-A_GA (crLbu_A_mature_GA_SCK340) (structured_RNA)
RNA: GACCACCCCAAAAAUGAAGGGGACUAAAACAGGGGCAGAGAUGAUGACCCU
- Kd (LbuC2c2-R1079A): 2.52 ± 0.5 nM

B3: crRNA-A_GG guide + on-target A ssRNA (mixed)
RNA 1: GGCCACCCCAAAAAUGAAGGGGACUAAAACAGGGGCAGAGAUGAUGACCCU
RNA 2: GGCACACCCGCAGGGGGGAGCCAAAAGGGUCAUCAUCUCUGCCCCCACAGCAGAAGCCCC
- Kd (LbuC2c2-dHEPN1/dHEPN2 [2]): 1.62 ± 0.43 nM
